Assay results: PMC10313822, “Disruption of ER ion homeostasis maintained by an ER anion channel CLCC1 contributes to ALS-like pathologies” (Cell Research, 2023)
Positions count from the first letter of the chain named. Names may count otherwise.

B1: purified full-length mouse CLCC1, His-tagged (natural protein, UniProt Q99LI2 19-539, looked up)
chain: HDDDWIDPTDMLNYDAASGTMRKSQVRSGTSEKKEVSPDSSEAEELSDCLHRLDSLTHKVDSCEKKKMKDYESQSNPVFRRYLNKILIEAGKLGLPDENKVEMRYDAEILLSRQTLLEIQKFLSGEEWKPGALDDALSDILINFKCHDSEAWKWQFEDYFGVDPYNVFMVLLCLLCLVVLVATELWTYVRWYTQMKRIFIISFLLSLAWNWIYLYKMAFAQHQANIAGMEPFDNLCAKKMDWTGSLWEWFTSSWTYKDDPCQKYYELLIVNPIWLVPPTKALAITFTNFVTEPLKHIGKGAGEFIKALMKEIPVLLQIPVLAILALAVLSFCYGAGRSVPMLRHFGGPDREPPRALEPDDRRRQKGLDYRLHGGAGDADFSYRGPAGSIEQGPYDKMHASKRDALRQRFHSGNKSPEVLRAFDLPDTEAQEHPEVVPSHKSPIMNTNLETGELPGESTPTEYSQSAKDVSGQVPSAGKSSPTVDKAQLKTDSECSPPGGCPPSKEAAVAAHGTEPVSSPCG
notes: CLCC1, mouse, full length (NM_145543.2; 539 residues by the printed limits of the C-terminal polypeptide 355-539); The predicted signal peptide may be removed in insect cells; also called mCLCC1; WT mCLCC1; source: High Five insect cells (baculovirus), purified (Ni-NTA, Superose 6 Increase); not shown: His10, C-terminal, kept
B2: C350F mutant mouse CLCC1, purified (natural protein, UniProt Q99LI2 19-539, looked up)
chain: B1 chain with C332F
notes: CLCC1, mouse, full length, with C350F; also called C350F mCLCC1; source: High Five insect cells (baculovirus), purified (Ni-NTA, Superose 6 Increase)

Biological target: the molecule itself
Assay: SEC; Superose 6 Increase, TBS (50 mM Tris-HCl pH 7.4, 150 mM NaCl) with 0.025% DDM and 2 mM DTT; size estimated from standard markers

Protein | binding result
B1 | binds
B2 | binds
